Assay results published in publication PMC9313494.

Molecular target: Lys-Nle peptide
Test: SPR; Lys-Nle peptide immobilised via its terminal thiol group on a CM5 chip (1123.9 RU); BMP-2 flown at increasing concentrations in PBS-T at 50 µL/min; regeneration with Gly-HCl pH 1.5; nonfunctionalized reference channel; Langmuir fit (BIAevaluation)

B1: bone morphogenetic protein-2 (BMP-2) (ligand)
chain: QAKHKQRKRLKSSCKRHPLYVDFSDVGWNDWIVAPPGYHAFYCHGECPFPLADHLNSTNHAIVQTLVNSVNSKIPKACCVPTELSAISMLYLDENEKVVLKNYQDMVVEGCGCR
Kd: 36.6 nM
